This assay deals with TSLP, Q969D9. The assay can be described thus: Kd (SPR).

B1: unnamed (protein)
chain 1: QMQLVESGGGVVQPGRSLRLSCAASGFTFSTYAMHWVRQAPGKGLEWVAVIWYDGSNKHYADSVKGRFTITRDNSKNTLNLQMNSLRAEDTAVYYCARSPRYDYYYEAFDVWGQGTMVTVSS
chain 2: SYVLTQPPSVSVAPGQTARITCGGNNLGSKSVHWYQQKPGQAPVLVVYDDSDRPSWIPERFSGSNSGNTATLTISRGEAGDEADYYCQVWDSSSDHVVFGGGTKLTVL
Broadly, the Kd is the constant that tells how readily two partners part at equilibrium. In turn, B1 yielded a Kd of 524 nM.

B2: unnamed (protein)
chain 1: QMQLVESGGGVVQPGRSLRLSCAASGFTFSTYAMHWVRQAPGKGLEWVAVIWYDGSNKHYADSVKGRFTITRDNSKNTLNLQMNSLRAEDTAVYYCARAPRYYDYWEAFDVWGQGTMVTVSS
chain 2: SYVLTQPPSVSVAPGQTARITCGGNNLGSKSVHWYQQKPGQAPVLVVYDDSDRPSWIPERFSGSNSGNTATLTISRGEAGDEADYYCQVWDSSSDHVVFGGGTKLTVL
In turn, B2 displayed a Kd of 285 nM.

B3: unnamed (protein)
chain 1: QMQLVESGGGVVQPGRSLRLSCAASGFTFSTFAMHWVRQAPGKGLEWVAVIWYDGSNKHYADSVKGRFTITRDNSKNTLNLQMNSLRAEDTAVYYCARAPRYDEAYEAFDVWGQGTMVTVSS
chain 2: SYVLTQPPSVSVAPGQTARITCGGNNLGSKSVHWYQQKPGQAPVLVVYDDSDRPSWIPERFSGSNSGNTATLTISRGEAGDEADYYCQVWDSSSDHVVFGGGTKLTVL
In the case of B3, the Kd stood at 502 nM.

B4: unnamed (protein)
chain 1: QMQLVESGGGVVQPGRSLRLSCAASGFTFSTFAMHWVRQAPGKGLEWVAVIWYDGGNKHYADSVKGRFTITRDNSKNTLNLQMNSLRAEDTAVYYCARAPRYDEYYEAFDVWGQGTMVTVSS
chain 2: SYVLTQPPSVSVAPGQTARITCGGNNLGSKSVHWYQQKPGQAPVLVVYDDSDRPSWIPERFSGSNSGNTATLTISRGEAGDEADYYCQVWDSSSDHVVFGGGTKLTVL
Molecule B4 registered a Kd of 217 nM.

Values taken from the FLAb antibody collection (doi:10.1101/2023.12.08.570889).
